# In the Human Domainome abundance scans (Beltran et al. 2025):
# ± gives the uncertainty stated by the source.
# B1: Steroid hormone receptor ERR2, residues 100 to 176; numbered along this chain, O95718 (parent)
# chain: KRLCLVCGDIASGYHYGVASCEACKAFFKRTIQGNIEYSCPATNECEITKRRRKSCQACRFMKCLKVGMLKEGVRLD
# B2: Transcriptional regulator ERG, residues 117 to 197; numbered along this chain, P11308 (parent)
# chain: NMTTNERRVIVPADPTLWSTDHVRQWLEWAVKEYGLPDVNILLFQNIDGKELCKMTKDDFQRLTPSYNADILLSHLHYLRE
# Variants of: B1
# Experiment: abundance fitness (aPCA) (normalised: wild type 0, dead -1); higher = more abundant; growth selection in yeast, the domain comes from the species named
# Details: Homo sapiens
row,Variant,abundance fitness
1,KRLCLVCGDIASGYHYGVASCEACKAFFKRTIQGNIEYSCPATNECEITKRRRKSCQACRFMKCLKVGMLKEGVRSD [L76S],-0.07 ± 0.062
2,KRLCLVCGDIASGYHYGVASCEACKAFFKRTIQGNIEYSCPATNECEITKRRRKSCQACRFMKCLKVGMLKEGVRTD [L76T],-0.024 ± 0.083
3,KRLCLVCGDIASGYHYGVASCEACKAFFKRTIQGNIEYSCPATNECEITKRRRKSCQACRFMKCLKVGMLKEGVRVD [L76V],0.058 ± 0.045
4,KRLCLVCGDIASGYHYGVASCEACKAFFKRTIQGNIEYSCPATNECEITKRRRKSCQACRFMKCLKVGMLKEGVRWD [L76W],-0.095 ± 0.053
5,KRLCLVCGDIASGYHYGVASCEACKAFFKRTIQGNIEYSCPATNECEITKRRRKSCQACRFMKCLKVGMLKEGVRYD [L76Y],-0.001 ± 0.12
6,KRLCLVCGDIASGYHYGVASCEACKAFFKRTIQGNIEYSCPATNECEITKRRRKSCQACRFMKCLKVGMLKEGVRLA [D77A],-0.131 ± 0.073
7,KRLCLVCGDIASGYHYGVASCEACKAFFKRTIQGNIEYSCPATNECEITKRRRKSCQACRFMKCLKVGMLKEGVRLC [D77C],-0.348 ± 0.18
8,KRLCLVCGDIASGYHYGVASCEACKAFFKRTIQGNIEYSCPATNECEITKRRRKSCQACRFMKCLKVGMLKEGVRLE [D77E],-0.096 ± 0.082
9,KRLCLVCGDIASGYHYGVASCEACKAFFKRTIQGNIEYSCPATNECEITKRRRKSCQACRFMKCLKVGMLKEGVRLF [D77F],-0.363 ± 0.22
10,KRLCLVCGDIASGYHYGVASCEACKAFFKRTIQGNIEYSCPATNECEITKRRRKSCQACRFMKCLKVGMLKEGVRLG [D77G],-0.194 ± 0.064
11,KRLCLVCGDIASGYHYGVASCEACKAFFKRTIQGNIEYSCPATNECEITKRRRKSCQACRFMKCLKVGMLKEGVRLH [D77H],0.082 ± 0.12
12,KRLCLVCGDIASGYHYGVASCEACKAFFKRTIQGNIEYSCPATNECEITKRRRKSCQACRFMKCLKVGMLKEGVRLI [D77I],-0.572 ± 0.19
13,KRLCLVCGDIASGYHYGVASCEACKAFFKRTIQGNIEYSCPATNECEITKRRRKSCQACRFMKCLKVGMLKEGVRLL [D77L],-0.168 ± 0.088
14,KRLCLVCGDIASGYHYGVASCEACKAFFKRTIQGNIEYSCPATNECEITKRRRKSCQACRFMKCLKVGMLKEGVRLM [D77M],-0.35 ± 0.14
15,KRLCLVCGDIASGYHYGVASCEACKAFFKRTIQGNIEYSCPATNECEITKRRRKSCQACRFMKCLKVGMLKEGVRLN [D77N],-0.166 ± 0.11
16,KRLCLVCGDIASGYHYGVASCEACKAFFKRTIQGNIEYSCPATNECEITKRRRKSCQACRFMKCLKVGMLKEGVRLP [D77P],0.171 ± 0.1
17,KRLCLVCGDIASGYHYGVASCEACKAFFKRTIQGNIEYSCPATNECEITKRRRKSCQACRFMKCLKVGMLKEGVRLQ [D77Q],0.26 ± 0.13
18,KRLCLVCGDIASGYHYGVASCEACKAFFKRTIQGNIEYSCPATNECEITKRRRKSCQACRFMKCLKVGMLKEGVRLR [D77R],-0.11 ± 0.058
19,KRLCLVCGDIASGYHYGVASCEACKAFFKRTIQGNIEYSCPATNECEITKRRRKSCQACRFMKCLKVGMLKEGVRLS [D77S],-0.059 ± 0.077
20,KRLCLVCGDIASGYHYGVASCEACKAFFKRTIQGNIEYSCPATNECEITKRRRKSCQACRFMKCLKVGMLKEGVRLT [D77T],-0.04 ± 0.095
21,KRLCLVCGDIASGYHYGVASCEACKAFFKRTIQGNIEYSCPATNECEITKRRRKSCQACRFMKCLKVGMLKEGVRLV [D77V],-0.111 ± 0.068
22,KRLCLVCGDIASGYHYGVASCEACKAFFKRTIQGNIEYSCPATNECEITKRRRKSCQACRFMKCLKVGMLKEGVRLW [D77W],-0.287 ± 0.12
23,KRLCLVCGDIASGYHYGVASCEACKAFFKRTIQGNIEYSCPATNECEITKRRRKSCQACRFMKCLKVGMLKEGVRLY [D77Y],-0.29 ± 0.2

# Variants of: B2
# Experiment: as above
# Details: Homo sapiens
row,Variant,abundance fitness
1,NMTTNERRVIVPADPTLWSIDHVRQWLEWAVKEYGLPDVNILLFQNIDGKELCKMTKDDFQRLTPSYNADILLSHLHYLRE [T20I],-0.11 ± 0.08
2,NMTTNERRVIEPADPTLWSTDHVRQWLEWAVKEYGLPDVNILLFQNIDGKELCKMTKDDFQRLTPSYNADILLSHLHYLRE [V11E],0.056 ± 0.048
3,NMTTNYRRVIVPADPTLWSTDHVRQWLEWAVKEYGLPDVNILLFQNIDGKELCKMTKDDFQRLTPSYNADILLSHLHYLRE [E6Y],-0.089 ± 0.091
4,NMTTNERRVIVPADPTLWSTDHVRQWLEWAVKEYGLDDVNILLFQNIDGKELCKMTKDDFQRLTPSYNADILLSHLHYLRE [P37D],-0.027 ± 0.069
5,NMTTNERRVIVPADPTLWSTDHVRQWLEWAVKEYGLPDVNILLFHNIDGKELCKMTKDDFQRLTPSYNADILLSHLHYLRE [Q45H],0.07 ± 0.071
6,NMTTNERRVIVPADPTLWSTDHVHQWLEWAVKEYGLPDVNILLFQNIDGKELCKMTKDDFQRLTPSYNADILLSHLHYLRE [R24H],-0.182 ± 0.11
7,NMTTNERRVIVPADPTLWSTDHVRQWLEWAVKEYGLPDVNILLFQNIGGKELCKMTKDDFQRLTPSYNADILLSHLHYLRE [D48G],-0.114 ± 0.034
8,NMTTNERRVIVPADPTLWSTDHVRLWLEWAVKEYGLPDVNILLFQNIDGKELCKMTKDDFQRLTPSYNADILLSHLHYLRE [Q25L],0.064 ± 0.042
9,NMTTNERRVIVPADPTLWSTDHVRQWLEWAVKEIGLPDVNILLFQNIDGKELCKMTKDDFQRLTPSYNADILLSHLHYLRE [Y34I],-0.171 ± 0.092
10,NMTTNERRVIVPADPTLWSTDHVRQWLEWAVKEYGLPDVNILLFQNIDGKELCKMMKDDFQRLTPSYNADILLSHLHYLRE [T56M],-0.282 ± 0.12
11,NMTTNERRVIVPADPTLWSTDHVRQWLQWAVKEYGLPDVNILLFQNIDGKELCKMTKDDFQRLTPSYNADILLSHLHYLRE [E28Q],-0.062 ± 0.068
12,NMTTNERRVIVPADPTLWSTAHVRQWLEWAVKEYGLPDVNILLFQNIDGKELCKMTKDDFQRLTPSYNADILLSHLHYLRE [D21A],0.004 ± 0.039
